Patent publication US20160271244A1
Several values for one entry are separate records, joined by “and”; a condition that tells them apart may be missing. Identical values can stand only once.

4E10 (antibody)
Kd (JRFL APA DEG): 140 nM and 150 nM and 180 nM | koff (JRFL APA DEG): 0.001 s⁻¹ | kon (JRFL APA DEG): 6800 M⁻¹ s⁻¹ and 6600 M⁻¹ s⁻¹ and 5500 M⁻¹ s⁻¹ | Kd (JRFL APA): 1380 nM | koff (JRFL APA): 0.001 s⁻¹ | kon (JRFL APA): 720 M⁻¹ s⁻¹
